Source: the Immune Epitope Database (IEDB)
pIC50, pKd: −log10 of the molar value.

Key:
Conditions in all cases: source organism: Hepatitis B virus
[1] = target: HLA-B*35:01; assay: IEDB peptide-MHC binding, purified MHC/competitive/radioactivity; ≥ and ≤ were set here for values at or beyond the usual limits of such assays
[2] = target: HLA-B*53:01; assay: as above
[3] = target: HLA-B*51:01; assay: as above
[4] = target: HLA-A*68:01; assay: IEDB peptide-MHC binding, purified MHC/competitive/radioactivity; filed as Kd, often an IC50 or EC50 that approximates it; ≥ and ≤ were set here for values at or beyond the usual limits of such assays
[5] = target: HLA-A*33:01; assay: as above
[6] = target: HLA-A*31:01; assay: as above
[7] = target: HLA-B*51:01; assay: as above
[8] = target: HLA-A*03:01; assay: IEDB peptide-MHC binding, purified MHC/competitive/radioactivity; ≥ and ≤ were set here for values at or beyond the usual limits of such assays
[9] = target: HLA-A*68:01; assay: as above
[10] = target: HLA-A*03:01; assay: IEDB peptide-MHC binding, purified MHC/competitive/radioactivity; filed as Kd, often an IC50 or EC50 that approximates it; ≥ and ≤ were set here for values at or beyond the usual limits of such assays
[11] = target: HLA-A*02:06; assay: as above
[12] = target: HLA-A*02:03; assay: as above

| Sequence | pKd [4] | pKd [5] | pKd [6] | further results |
| --- | --- | --- | --- | --- |
| YPALMPLYA | – | – | – | pIC50 [1]: 6.82; pIC50 [2]: 6.18; pIC50 [3]: 6.79 |
| MMWYWGPSLY | ≤ 4.60 | ≤ 4.60 | ≤ 4.60 | – |
| KVGNFTGLY | ≤ 4.60 | ≤ 4.60 | ≤ 4.60 | – |
| TPARVTGGVF | – | – | – | pKd [7]: ≤ 4.60 |
| VTGGVFLVDK | – | – | ≤ 4.60 | – |
| HTLWKAGILY | – | – | ≤ 4.60 | – |
| GTDNSVVLSRK | ≤ 4.60 | ≤ 4.60 | ≤ 4.60 | pIC50 [8]: 6.10 |
| VVDFSQFSR | – | – | – | pIC50 [9]: 6.49 |
| TLWKAGILY | ≤ 4.60 | ≤ 4.60 | – | – |
| GTDNSVVLSR | ≤ 4.70 | – | – | pKd [10]: ≤ 5.00 |
| YMDDVVLGA | – | – | – | pKd [11]: ≤ 4.60; pKd [12]: 5.38 |
| YMDDVVLGAK | ≤ 4.60 | ≤ 4.60 | ≤ 4.60 | – |
| IPIPSSWAF | – | – | – | pIC50 [1]: 8.59; pIC50 [3]: 6.66 |
| PVNRPIDWK | – | ≤ 4.60 | ≤ 4.60 | – |
| DPSRGRLGL | – | – | – | pKd [7]: ≤ 4.60 |
| GLLGWSPQA | – | – | – | pKd [11]: 5.88 |
| RVTGGVFLVDK | ≤ 4.60 | ≤ 4.60 | ≤ 4.60 | pIC50 [8]: 6.24 |
